Experiment in all cases: cell-based or functional assay
Assay [1] has as its target T1, B-cat-Halo (beta-catenin HaloTag fusion construct expressed in HEK293 cells) (UniProt P35222 1-781).
T1 sequence (looked up): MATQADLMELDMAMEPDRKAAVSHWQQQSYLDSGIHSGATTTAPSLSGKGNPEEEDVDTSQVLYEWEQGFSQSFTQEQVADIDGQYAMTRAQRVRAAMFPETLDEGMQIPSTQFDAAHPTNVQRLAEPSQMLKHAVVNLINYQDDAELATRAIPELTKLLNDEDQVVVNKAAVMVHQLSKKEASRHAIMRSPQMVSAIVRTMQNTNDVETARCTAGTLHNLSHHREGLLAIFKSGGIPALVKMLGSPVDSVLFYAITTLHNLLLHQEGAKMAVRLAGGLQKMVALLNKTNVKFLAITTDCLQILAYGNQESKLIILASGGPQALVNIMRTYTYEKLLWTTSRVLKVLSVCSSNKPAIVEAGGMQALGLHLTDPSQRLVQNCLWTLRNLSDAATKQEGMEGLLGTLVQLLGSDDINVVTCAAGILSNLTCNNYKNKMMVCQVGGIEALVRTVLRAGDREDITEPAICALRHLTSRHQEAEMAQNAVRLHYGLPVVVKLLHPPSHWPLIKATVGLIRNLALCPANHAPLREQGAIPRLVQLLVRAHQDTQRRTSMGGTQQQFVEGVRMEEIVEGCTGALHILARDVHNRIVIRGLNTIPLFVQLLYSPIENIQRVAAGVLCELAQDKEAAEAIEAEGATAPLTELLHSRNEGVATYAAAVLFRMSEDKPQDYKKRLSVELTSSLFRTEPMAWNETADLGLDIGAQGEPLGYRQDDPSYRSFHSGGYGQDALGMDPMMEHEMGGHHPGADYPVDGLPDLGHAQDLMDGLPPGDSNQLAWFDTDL

Assay [2] deals with T2, B-cat-Halo (beta-catenin HaloTag construct expressed in HEK293 cells) (UniProt P35222 1-781).
T2 sequence (looked up): T1 sequence (looked up)

A further assay concerns the target T3, B-cat-Halo (UniProt P35222 1-781).
T3 sequence (looked up): T1 sequence (looked up)

Starred links: 1 amine or outer side, 2 acyl side, 3 side chain; linkers in the order of their positions; H or OH if unused. Positions of bridges follow the written chain, without caps; N, C: chain ends. Non-standard residues stand in square brackets, D forms with d. Primed or numbered codes have the meaning given here. *: point of attachment. PyrS2″ = (S)-3-amino-1-((pent-4-en-1-yloxy)carbonyl)pyrrolidine-3-carboxylic acid (stapling residue), C=CCCCOC(=O)N1CC[C@@](N[*:1])(C(=O)[*:2])C1; TfeGA = (S)-2-amino-3-((carboxymethyl)(2,2,2-trifluoroethyl)amino)propanoic acid, O=C([C@H](CN(CC(=O)[*:3])CC(F)(F)F)N[*:1])[*:2]; PyrS2 = (S)-3-amino-1-((pent-4-en-1-yloxy)carbonyl)pyrrolidine-3-carboxylic acid, C=CCCCOC(=O)N1CC[C@@](N[*:1])(C(=O)[*:2])C1; B5(22) = 2-amino-2-(pent-4-en-1-yl)hept-6-enoic acid (two alkene side chains), C=CCCCC(CCCC=C)(N[*:1])C(=O)[*:2]; HypEs5 = (2R,4S)-4-(pent-4-enoyloxy)pyrrolidine-2-carboxylic acid, C=CCCC(=O)O[C@H]1C[C@H](C(=O)[*:2])N([*:1])C1; GAbu = (S)-2-amino-4-((carboxymethyl)amino)butanoic acid, O=C([C@H](CCNCC(=O)[*:3])N[*:1])[*:2]; B5(3) = 2,2-bis(4-pentenyl)glycine (stitching residue), C=CCCCC(CCCC=C)(N[*:1])C(=O)[*:2]; B5 = 2-amino-2-(pent-4-en-1-yl)hept-6-enoic acid, C=CCCCC(CCCC=C)(N[*:1])C(=O)[*:2]; Phenylacetyl(2,3,4,5,6-F5) = O=C(Cc1c(F)c(F)c(F)c(F)c1F)*; Benzoyl(2,3,4,5,6-F5) = O=C(c1c(F)c(F)c(F)c(F)c1F)*; Phe(3-COOH) = N[C@@H](Cc1cccc(C(=O)O)c1)C(=O)O; Ala(4-thiazolyl) = N[C@@H](Cc1cscn1)C(=O)O; Phe(2-Cl) = N[C@@H](Cc1ccccc1Cl)C(=O)O; Phe(2-OMe) = COc1ccccc1C[C@H](N)C(=O)O; Phe(3-F) = N[C@@H](Cc1cccc(F)c1)C(=O)O; Phe(4-F) = N[C@@H](Cc1ccc(F)cc1)C(=O)O; 1Nal = N[C@@H](Cc1cccc2ccccc12)C(=O)O; Phe(2-F) = N[C@@H](Cc1ccccc1F)C(=O)O; Bta = N[C@@H](Cc1csc2ccccc12)C(=O)O; αAllylPro = C=CC[C@@]1(C(=O)O)CCCN1; tBuAla = CC(C)(C)C[C@H](N)C(=O)O; 3Thi = N[C@@H](Cc1ccsc1)C(=O)O; Cha = N[C@@H](CC1CCCCC1)C(=O)O; Cit = NC(=O)NCCC[C@H](N)C(=O)O; S8 = C=CCCCCCC[C@](C)(N)C(=O)O; hSer = N[C@@H](CCO)C(=O)O

On to Ac-[αAllylPro]D[tBuAla][B5(3)]DDAA[Cha]S[PyrS2″]F[Bta]S-NH2 (staple 1-4, 4-11) [I-1105], for which, in assay [1], the “NanoBRET Abs IC50” value is more than 20 µM. Same read-out and setting: to Ac-[αAllylPro]D[tBuAla][B5(3)]DDAAFS[PyrS2″]F[Bta]S-NH2 (staple 1-4, 4-11) [I-1099] belongs 9 µM; to Ac-[αAllylPro]D[Cha][B5(3)]DDAAFS[PyrS2″][Phe(2-F)][Bta]S-NH2 (staple 1-4, 4-11) [I-1102], 27.2 µM. Consider Ac-[αAllylPro]D[tBuAla][B5(3)]DDAAF[hSer][PyrS2″][3Thi][Bta]H-NH2 (staple 1-4, 4-11) [I-804], for which the “NanoBRET Abs IC50” value in assay [2] amounted to 13.5 µM. Ac-[αAllylPro]D[Cha][B5(3)]DDAAFS[PyrS2″]F[Bta]S-NH2 (staple 1-4, 4-11) [I-1100]: in assay [1], the “NanoBRET Abs IC50” value turned out to be 24.3 µM.

Ac-[αAllylPro]D[tBuAla][B5(3)]D[Phe(3-COOH)]AA[Phe(3-F)]L[PyrS2″][3Thi][Bta]A-NH2 (staple 1-4, 4-11) [I-2260]: the “NanoBRET Abs IC50” value in the assay with B-cat-Halo was 3.1 µM. For the molecule Ac-[αAllylPro]D[tBuAla][B5(3)]DDAAF[Cit][PyrS2″][3Thi][Bta]Q-NH2 (staple 1-4, 4-11) [I-805], in assay [2], the “NanoBRET Abs IC50” value stood at 18.5 µM. Ac-[αAllylPro]D[tBuAla][B5(3)]D[Phe(3-COOH)]AAFL[PyrS2″][Phe(4-F)][Bta]A-NH2 (staple 1-4, 4-11) [I-2263]: the “NanoBRET Abs IC50” value with B-cat-Halo was found to be 4.3 µM. For Ac-[HypEs5]D[tBuAla][B5(3)]D[TfeGA]AAFL[PyrS2″][3Thi][Bta]Q-NH2 (staple 1-4, 4-11) [I-2264], the “NanoBRET Abs IC50” value with B-cat-Halo was determined as 25.5 µM.

For the molecule Ac-[αAllylPro]D[tBuAla][B5(3)]D[Phe(3-COOH)]AAFL[PyrS2″][3Thi][Bta]A-NH2 (staple 1-4, 4-11) [I-2257], the “NanoBRET Abs IC50” value with B-cat-Halo was determined as 2.9 µM. Regarding Ac-[αAllylPro]D[tBuAla][B5(3)]DDAAFS[PyrS2″][Cha][Bta]S-NH2 (staple 1-4, 4-11) [I-1106], in assay [1], the “NanoBRET Abs IC50” value was more than 20 µM. Regarding Ac-[αAllylPro]D[tBuAla][B5(3)]DEAAFL[S8][Phe(2-Cl)][Bta]Q-NH2 (staple 1-4, 4-11) [I-1096], the “NanoBRET Abs IC50” value in assay [1] came out at 8.6 µM.

Take Ac-[αAllylPro]D[tBuAla][B5(3)]D[Phe(3-COOH)]AAFL[PyrS2″][Phe(3-F)][Bta]A-NH2 (staple 1-4, 4-11) [I-2261]: the “NanoBRET Abs IC50” value in the assay with B-cat-Halo came to 6.4 µM. Consider Ac-[αAllylPro]D[tBuAla][B5]DDAAFL[PyrS2][3Thi][Bta]H-NH2 (staple 1-4, 4-11) [I-802], for which the “NanoBRET Abs IC50” value in assay [2] worked out at 4.8 µM.

On to Ac-[αAllylPro]D[tBuAla][B5(3)]DDAAFF[PyrS2″][3Thi][Bta]H-NH2 (staple 1-4, 4-11) [I-808], for which, in assay [2], the “NanoBRET Abs IC50” value worked out at 4.4 µM. As to Ac-[αAllylPro]D[tBuAla][B5(22)]D[GAbu](Benzoyl(2,3,4,5,6-F5))AAFL[PyrS2][3Thi][Bta]Q-NH2 (staple 1-4, 4-11) [I-2252], in the assay with B-cat-Halo, the “NanoBRET Abs IC50” value was found to be 17.5 µM. Ac-[αAllylPro]D[tBuAla][B5(22)]D[GAbu](Phenylacetyl(2,3,4,5,6-F5))AAFL[PyrS2][3Thi][Bta]Q-NH2 (staple 1-4, 4-11) [I-2251]: the “NanoBRET Abs IC50” value with B-cat-Halo came out at 6.4 µM. For Ac-[αAllylPro]D[tBuAla][B5(3)]DDAAF[Cit][PyrS2″][3Thi][Bta]H-NH2 (staple 1-4, 4-11) [I-806], the “NanoBRET Abs IC50” value in assay [2] came out at 21.6 µM. For the molecule Ac-[αAllylPro]D[Cha][B5(3)]DDAAF[Cha][PyrS2″][Phe(2-Cl)][Bta]Q-NH2 (staple 1-4, 4-11) [I-1107], the “NanoBRET Abs IC50” value in assay [1] turned out to be 11.8 µM. Ac-[αAllylPro]D[tBuAla][B5(3)]D[Phe(3-COOH)]AA[Phe(4-F)]L[PyrS2″][3Thi][Bta]A-NH2 (staple 1-4, 4-11) [I-2262]: the “NanoBRET Abs IC50” value with B-cat-Halo came to 3.7 µM. As to Ac-[αAllylPro]D[tBuAla][B5(3)]DDAAFL[S8][Phe(2-Cl)][Bta][dT]-NH2 (staple 1-4, 4-11) [I-1097], in assay [1], the “NanoBRET Abs IC50” value was more than 20 µM. On to Ac-[αAllylPro]D[tBuAla][B5]DDAAFN[PyrS2][1Nal][Bta]H-NH2 (staple 1-4, 4-11) [I-794], for which the “NanoBRET Abs IC50” value in assay [2] was found to be 26.4 µM. Turning to Ac-[αAllylPro]D[tBuAla][B5(3)]DDAAFL[S8][Phe(2-Cl)][Bta]Q-NH2 (staple 1-4, 4-11) [I-1095], the “NanoBRET Abs IC50” value in assay [1] was more than 20 µM. For the molecule Ac-[αAllylPro]D[tBuAla][B5(3)]DDAAFF[PyrS2″][3Thi][Bta]Q-NH2 (staple 1-4, 4-11) [I-807], the “NanoBRET Abs IC50” value in assay [2] was 3.2 µM. As for Ac-[αAllylPro]D[tBuAla][B5(3)]DDAAFS[PyrS2″][Phe(2-OMe)][Bta]S-NH2 (staple 1-4, 4-11) [I-1103], the “NanoBRET Abs IC50” value in assay [1] was 16.7 µM. Take Ac-[αAllylPro]D[tBuAla][B5(3)]DDAA[Ala(4-thiazolyl)]N[PyrS2″][3Thi][Bta]Q-NH2 (staple 1-4, 4-11) [I-812]: the “NanoBRET Abs IC50” value in assay [2] turned out to be 48.6 µM. Ac-[HypEs5]D[tBuAla][B5(3)]D[TfeGA]AAFL[PyrS2″][3Thi][Bta]Q-NH2 (staple 1-4, 4-11; also: staple double bonds reduced to -CH2-CH2-) [I-2265]: the “NanoBRET Abs IC50” value with B-cat-Halo was more than 20 µM. On to Ac-[αAllylPro]D[tBuAla][B5]DDAAFN[PyrS2″][3Thi][Bta]N-NH2 (staple 1-4, 4-11) [I-816], for which the “NanoBRET Abs IC50” value in assay [2] was 13.7 µM.

Turning to Ac-[αAllylPro]D[tBuAla][B5]DDAAFN[PyrS2″][3Thi][Bta][dH]-NH2 (staple 1-4, 4-11) [I-813], the “NanoBRET Abs IC50” value in assay [2] is 20.9 µM. Regarding Ac-[αAllylPro]D[Cha][B5(3)]DDAAFS[PyrS2″][Phe(2-OMe)][Bta]S-NH2 (staple 1-4, 4-11) [I-1104], in assay [1], the “NanoBRET Abs IC50” value was determined as 17.7 µM. Take Ac-[αAllylPro]D[tBuAla][B5(3)]DDAAFT[PyrS2″][3Thi][Bta]H-NH2 (staple 1-4, 4-11) [I-810]: the “NanoBRET Abs IC50” value in assay [2] is 18 µM. With Ac-[αAllylPro]D[tBuAla][B5(3)]DDAAFS[PyrS2″][Phe(2-F)][Bta]S-NH2 (staple 1-4, 4-11) [I-1101], the “NanoBRET Abs IC50” value in assay [1] is 27 µM. On to Ac-[αAllylPro]D[tBuAla][B5(3)]DDAAFN[PyrS2″][Ala(4-thiazolyl)][Bta]Q-NH2 (staple 1-4, 4-11) [I-811], for which the “NanoBRET Abs IC50” value in assay [2] was more than 20 µM. Regarding Ac-[αAllylPro]D[tBuAla][B5(3)]D[Phe(3-COOH)]AAFF[PyrS2″][3Thi][Bta]A-NH2 (staple 1-4, 4-11) [I-2259], the “NanoBRET Abs IC50” value in the assay with B-cat-Halo is 4.3 µM.
